Holding throughout (assay): purified protein
Substrate in data set [1]: CCCC(=O)O
The settings on record: 10 mM ATP, 4 mM MnSO4, pH 7.5, 37 °C.

Substrate in data set [2]: Nc1ncnc2c1ncn2[C@@H]1O[C@H](COP(=O)(O)OP(=O)(O)OP(=O)(O)O)[C@@H](O)[C@H]1O
The note with it: 200 mM butyrate, 4 mM MnSO4, pH 7.5, 37 °C, no ADP.

Substrate in data set [3]: CC(C)CC(=O)O
The note with it: 10 mM ATP, 4 mM MnSO4, pH 7.5, 37 °C.

Substrate in data set [4]: CC(C)C(=O)O
The note with it: 10 mM ATP, 4 mM MnSO4, pH 7.5, 37 °C.

Substrate in data set [5]: CCCCC(=O)O
The settings on record: 10 mM ATP, 4 mM MnSO4, pH 7.5, 37 °C.

The text below walks through data of article PMC5263062.

B1: LmBuk (Buk, butyrate kinase) (Listeria monocytogenes EGD-e) (protein)
chain: MSFDVLTINPGSTSTKLAVYQGDKVLFEETVRHTMQELADFNNVQEQFDFRWQVLRRVMDAHGYDVKKLQAVVGRGGLLRPVAGGTYMVTEKMIDDLKENKYGEHASNLGAMLAKKLADELTIPSFIVDPVVVDEMQEIARISGNAFVTRKSIFHALNHKAAGRKIAKELGKDYEKMNFVIAHLGGGISVAAHRQGKAVDVNNALDGDGPFSPERSGSLPMNDFLEACFSGKWTKRELHELIVGRGGMISYLGTNSMLEVEAKVQAGEEKAIEAFDAMAYQVSKEIGACSVVLQGKVDAIILTGGLARSELFTSKIIEQTNWITSVIIEPGEDELEALNSGVQRVLAGLEKEKEY
On to B1, for which the Michaelis constant (Km) in data set [1] worked out at 50.5 ± 5.8 mM; in data set [3], 57.1 ± 9.6 mM; in data set [4] it was 7.6 ± 1.3 mM; in data set [5], 13.1 ± 3.3 mM. Moreover, the kcat in data set [1] was 0.8367 ± 0.00667 s⁻¹; in data set [3], 0.417 s⁻¹; in data set [4] it was 0.395 ± 0.00667 s⁻¹; in data set [5], 1.2 ± 0.0367 s⁻¹. Moreover, the kcat/Km came out at 16.5 M⁻¹ s⁻¹ in data set [1], 7.33 M⁻¹ s⁻¹ in data set [3], 51.7 M⁻¹ s⁻¹ in data set [4] and 91.7 M⁻¹ s⁻¹ in data set [5]. Moreover, the K0.5 in data set [2] was found to be 3.18 mM.

The Km is the substrate concentration at which the rate is half of its maximum. As usually defined, the kcat is the maximal rate divided by the concentration of active sites. Usually kcat/Km stands for the second-order rate constant that governs catalysis at low substrate concentration.
